In patent US20230050972A1 (MOMENTA PHARMACEUTICALS, published 2023):
Where “and” joins values, the source holds several entries; their conditions need not be identical. Equal values may be shown once.

T1: in-house generated I domain of α11β1 (human, UniProt Q9UKX5 159-349, limits assumed)
T1 construct: domain: I domain; also called human α11β1 I domain; α11β1 I Domain
T1 sequence (looked up): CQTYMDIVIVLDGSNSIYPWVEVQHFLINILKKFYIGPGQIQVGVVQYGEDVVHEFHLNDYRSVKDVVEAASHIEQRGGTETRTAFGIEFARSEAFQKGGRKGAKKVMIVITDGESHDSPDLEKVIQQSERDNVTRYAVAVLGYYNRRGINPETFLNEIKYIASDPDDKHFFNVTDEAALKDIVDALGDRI


How the values were obtained:
[1] = biological target: T2, α11β1 on human myofibroblasts (MF) (human, UniProt Q9UKX5 23-1188; P05556 21-798); assay: FACS titration on human myofibroblasts
T2 construct: whole, on cells
Procedure: Human Pulmonary Fibroblasts (ScienCell) were cultured in complete Fibroblast Growth Medium (ScienCell) until 80% confluent in T-150 flasks. Cells were washed and harvested using Accutase. Cells were seeded into T-150 flasks at 7,500 cells/cm² in complete FGF and cultured for 72 hours. Cells were then washed and starved in serum reduced medium for 24 hours. After starvation, cells were treated with TGFβ-1 (R&D Systems) for 72 hours. Cells were harvested using Accutase and seeded in 96-well conical bottom plates. Cells were blocked with Heat Inactived Fetal Bovine Serum (Gibco) for 30 minutes at 4° C. Cells were then incubated with anti-α11 antibodies at the doses described in each figure for 30 minutes at 4° C. A human anti-α11 antibody (Creative BioLabs) was included as a positive control as well as the appropriate IgG isotype negative controls. Cells were washed twice and incubated with PE conjugated secondary antibodies specific to the IgG class of the anti-α11 antibodies being tested for 30 minutes at 4° C. Cells were washed twice and fixed in 1% PFA for 30 minutes. Cells were acquired on a FACS Verse […]. Data were analyzed by gating on single cells and determining the geometric Mean Fluorescence Intensity (gMFI) in the PE channel for each sample.

[2] = biological target: T3, recombinant human α11β1 (human, UniProt Q9UKX5 23-1141; P05556 21-728); assay: SPR, HIS-tagged human α11β1 captured by anti-HIS, antibody as analyte, single-cycle kinetics
T3 construct: Coated in ELISA; ELISA and SPR material treated as one molecule; also called HIS-tagged human α11β1; integrin alpha 11 beta 1
Procedure: (§1) The affinity of antibodies for human α11β1 was measured by surface plasmon resonance assay (SPR). Affinity was measured at pH 7.6 and 25° C. with a Biacore T200 instrument. Anti-HIS antibody was immobilized on the SPR sensor surface using EDC/NHS covalent attachment. HIS-tagged human α11β1 was captured on the sensor surface and a single-cycle kinetics assay was used. Increasing concentrations of test antibody were injected in series over the sensor-bound α11β1. Dissociation was monitored for 1000 seconds. A sensor surface with only anti-HIS antibody and a series of blank injections were used to double-reference subtract the data. A 1:1 Langmuir model was fit to the data to estimate the kinetic association and dissociation constants. The affinity (equilibrium dissociation constant) of the interaction was calculated by dividing the kinetic dissociation constant by the kinetic association constant. Between injection cycles α11β1 and bound antibody were removed with an injection of 10 mM glycine at pH 1.5.
The binding affinity of antibodies for the α11β1 Headpiece and α11β1 I Domain as measured by SPR is shown in FIG. 10A and FIG. 10B, respectively.

[3] = biological target: T3, recombinant human α11β1; assay: SPR (Biacore T200), HIS-tagged human α11β1 captured on anti-HIS, single-cycle kinetics, 1:1 Langmuir fit
Procedure: as §1

[4] = biological target: T4, human α11β1 expressed on the surface of CHO-K1 cells (human, UniProt Q9UKX5 23-1188); assay: FACS titration on Human CHO-α11 cells
Procedure: 200,000 cells (wild-type CHO-K1 cells or CHO-K1 cells expressing human α11) were incubated with each antibody at desired concentrations in FACS buffer for 30 min at 4° C. Then, the cells were washed with FACS buffer and incubated with secondary antibody at 1:100 dilution for 30 minutes at 4° C. Cells were then washed and fixed with 1% PFA in PBS for 20 minutes at room temperature; washed again and read on a cytometer in FACS buffer.

[5] = biological target: T4, human α11β1 expressed on the surface of …; assay: cell-based or functional assay
[6] = biological target: T1, in-house generated I domain of α11β1; assay: SPR, single-cycle injections of 33, 100 and 300 nM over the a11b1 I Domain
[7] = biological target: T5, recombinant mouse α11β1 (mouse, UniProt P61622 23-1141; P09055 21-728, limits assumed); assay: ELISA on recombinant mouse α11β1
T5 construct: also called murine α11β1
Procedure: 0.25 μg/mL of target antigen (recombinant human or mouse α11β1) was plated in a 96-well plate over night at 4° C. Plates were washed (PBS with 0.1% Tween-20), blocked (PBS with 2% BSA and 0.05% Tween-20) for 1 hour at room temperature and incubated with a range of antibody concentrations for 1 hour at room temperature. Subsequently, plates were washed and incubated with biotinylated anti-rabbit/mouse/human IgG in a 1:1000 dilution buffer and incubated for 1 hour at room temperature. After washing the plates, Streptavidin HRP was added at 1:200 in dilution buffer and incubated for 1 hour at room temperature. Ultra TMB ELISA substrate solution was added and the plates incubated for 5 minutes on a plate shaker. The reaction was stopped by adding stop solution to each well and plates were read at 450 nm.

[8] = biological target: T4, human α11β1 expressed on the surface of …; assay: cell-based or functional assay; remark: listed apart in the source
[9] = biological target: Mouse CHO-α11 (mouse, UniProt P61622); assay: FACS titration on Mouse CHO-α11 cells
Chain of Mouse CHO-α11 (P61622 23-1188): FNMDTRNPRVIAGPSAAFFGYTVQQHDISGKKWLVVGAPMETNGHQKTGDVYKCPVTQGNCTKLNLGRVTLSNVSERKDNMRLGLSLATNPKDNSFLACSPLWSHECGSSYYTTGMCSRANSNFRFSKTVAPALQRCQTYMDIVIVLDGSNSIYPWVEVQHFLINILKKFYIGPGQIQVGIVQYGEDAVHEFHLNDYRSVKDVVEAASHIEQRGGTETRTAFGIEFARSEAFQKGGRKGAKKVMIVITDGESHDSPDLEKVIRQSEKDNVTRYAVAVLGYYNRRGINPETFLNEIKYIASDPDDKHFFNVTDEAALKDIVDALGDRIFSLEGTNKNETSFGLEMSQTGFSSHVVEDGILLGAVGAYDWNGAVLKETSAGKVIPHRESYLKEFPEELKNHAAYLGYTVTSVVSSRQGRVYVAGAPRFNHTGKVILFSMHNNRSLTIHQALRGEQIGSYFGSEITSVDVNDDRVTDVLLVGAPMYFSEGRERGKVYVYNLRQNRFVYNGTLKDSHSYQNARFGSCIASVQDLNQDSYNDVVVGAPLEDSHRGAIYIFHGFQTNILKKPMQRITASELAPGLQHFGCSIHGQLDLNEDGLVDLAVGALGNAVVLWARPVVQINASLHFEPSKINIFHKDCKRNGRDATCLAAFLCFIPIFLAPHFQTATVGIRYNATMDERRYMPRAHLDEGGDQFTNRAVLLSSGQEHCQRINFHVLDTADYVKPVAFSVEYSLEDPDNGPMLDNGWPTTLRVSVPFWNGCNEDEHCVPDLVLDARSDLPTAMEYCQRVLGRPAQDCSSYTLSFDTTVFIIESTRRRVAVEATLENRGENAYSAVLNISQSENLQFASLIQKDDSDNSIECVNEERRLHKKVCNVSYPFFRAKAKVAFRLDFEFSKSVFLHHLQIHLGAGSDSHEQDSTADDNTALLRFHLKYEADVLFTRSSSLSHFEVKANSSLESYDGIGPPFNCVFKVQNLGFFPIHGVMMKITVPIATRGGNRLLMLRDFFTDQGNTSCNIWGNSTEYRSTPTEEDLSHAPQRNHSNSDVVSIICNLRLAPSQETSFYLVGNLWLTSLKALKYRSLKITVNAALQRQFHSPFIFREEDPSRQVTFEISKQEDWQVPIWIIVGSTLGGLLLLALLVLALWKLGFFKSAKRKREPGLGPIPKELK

T3 sequence (Q9UKX5 23-1141 limits assumed, chain 1 of 2): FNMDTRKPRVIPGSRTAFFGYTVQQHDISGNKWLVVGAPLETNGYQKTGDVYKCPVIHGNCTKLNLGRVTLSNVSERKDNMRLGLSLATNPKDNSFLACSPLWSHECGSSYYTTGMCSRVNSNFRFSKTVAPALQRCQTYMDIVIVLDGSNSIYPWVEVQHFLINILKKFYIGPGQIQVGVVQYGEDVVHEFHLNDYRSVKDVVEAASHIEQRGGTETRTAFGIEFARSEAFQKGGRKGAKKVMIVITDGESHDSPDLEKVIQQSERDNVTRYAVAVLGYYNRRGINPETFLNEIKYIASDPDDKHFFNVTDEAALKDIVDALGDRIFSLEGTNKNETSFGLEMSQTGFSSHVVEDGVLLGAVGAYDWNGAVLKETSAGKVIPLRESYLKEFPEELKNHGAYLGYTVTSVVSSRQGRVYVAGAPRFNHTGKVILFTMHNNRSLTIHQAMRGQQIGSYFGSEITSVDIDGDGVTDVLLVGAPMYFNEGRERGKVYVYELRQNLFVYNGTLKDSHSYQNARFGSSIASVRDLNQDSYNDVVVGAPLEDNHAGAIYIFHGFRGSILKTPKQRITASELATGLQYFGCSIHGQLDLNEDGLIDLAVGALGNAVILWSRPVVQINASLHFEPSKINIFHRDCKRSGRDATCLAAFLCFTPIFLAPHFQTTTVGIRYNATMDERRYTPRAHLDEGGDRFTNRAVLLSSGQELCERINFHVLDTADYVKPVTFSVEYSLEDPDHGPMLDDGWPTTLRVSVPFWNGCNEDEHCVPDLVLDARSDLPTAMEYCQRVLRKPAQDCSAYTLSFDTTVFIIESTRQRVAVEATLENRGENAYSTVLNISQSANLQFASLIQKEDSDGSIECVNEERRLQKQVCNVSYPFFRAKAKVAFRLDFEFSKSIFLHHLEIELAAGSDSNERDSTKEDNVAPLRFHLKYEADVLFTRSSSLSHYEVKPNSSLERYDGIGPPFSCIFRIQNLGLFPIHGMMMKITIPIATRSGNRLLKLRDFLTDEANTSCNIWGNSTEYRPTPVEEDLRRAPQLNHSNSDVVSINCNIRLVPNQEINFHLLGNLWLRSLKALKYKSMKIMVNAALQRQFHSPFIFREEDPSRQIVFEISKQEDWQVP
T3 sequence (P05556 21-728 limits assumed, chain 2 of 2): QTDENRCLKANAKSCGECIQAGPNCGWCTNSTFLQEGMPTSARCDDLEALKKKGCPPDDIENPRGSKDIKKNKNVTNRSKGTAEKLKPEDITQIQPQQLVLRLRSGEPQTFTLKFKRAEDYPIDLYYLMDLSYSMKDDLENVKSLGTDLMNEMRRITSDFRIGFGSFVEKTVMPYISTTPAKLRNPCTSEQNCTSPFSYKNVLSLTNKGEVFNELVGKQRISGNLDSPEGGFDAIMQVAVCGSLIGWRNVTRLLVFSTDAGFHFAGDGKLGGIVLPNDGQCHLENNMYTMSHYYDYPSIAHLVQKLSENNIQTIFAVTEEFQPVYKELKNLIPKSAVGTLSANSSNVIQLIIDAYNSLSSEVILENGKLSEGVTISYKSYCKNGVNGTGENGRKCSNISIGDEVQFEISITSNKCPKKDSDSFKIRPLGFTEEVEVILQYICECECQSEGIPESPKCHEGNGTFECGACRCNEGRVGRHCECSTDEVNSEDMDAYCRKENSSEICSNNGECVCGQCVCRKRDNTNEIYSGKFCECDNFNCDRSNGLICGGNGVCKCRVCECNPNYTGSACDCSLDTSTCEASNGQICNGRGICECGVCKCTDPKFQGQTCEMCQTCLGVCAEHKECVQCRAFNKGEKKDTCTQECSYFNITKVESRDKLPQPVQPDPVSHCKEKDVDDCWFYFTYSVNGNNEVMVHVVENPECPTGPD
T2 sequence (Q9UKX5 23-1188, chain 1 of 2): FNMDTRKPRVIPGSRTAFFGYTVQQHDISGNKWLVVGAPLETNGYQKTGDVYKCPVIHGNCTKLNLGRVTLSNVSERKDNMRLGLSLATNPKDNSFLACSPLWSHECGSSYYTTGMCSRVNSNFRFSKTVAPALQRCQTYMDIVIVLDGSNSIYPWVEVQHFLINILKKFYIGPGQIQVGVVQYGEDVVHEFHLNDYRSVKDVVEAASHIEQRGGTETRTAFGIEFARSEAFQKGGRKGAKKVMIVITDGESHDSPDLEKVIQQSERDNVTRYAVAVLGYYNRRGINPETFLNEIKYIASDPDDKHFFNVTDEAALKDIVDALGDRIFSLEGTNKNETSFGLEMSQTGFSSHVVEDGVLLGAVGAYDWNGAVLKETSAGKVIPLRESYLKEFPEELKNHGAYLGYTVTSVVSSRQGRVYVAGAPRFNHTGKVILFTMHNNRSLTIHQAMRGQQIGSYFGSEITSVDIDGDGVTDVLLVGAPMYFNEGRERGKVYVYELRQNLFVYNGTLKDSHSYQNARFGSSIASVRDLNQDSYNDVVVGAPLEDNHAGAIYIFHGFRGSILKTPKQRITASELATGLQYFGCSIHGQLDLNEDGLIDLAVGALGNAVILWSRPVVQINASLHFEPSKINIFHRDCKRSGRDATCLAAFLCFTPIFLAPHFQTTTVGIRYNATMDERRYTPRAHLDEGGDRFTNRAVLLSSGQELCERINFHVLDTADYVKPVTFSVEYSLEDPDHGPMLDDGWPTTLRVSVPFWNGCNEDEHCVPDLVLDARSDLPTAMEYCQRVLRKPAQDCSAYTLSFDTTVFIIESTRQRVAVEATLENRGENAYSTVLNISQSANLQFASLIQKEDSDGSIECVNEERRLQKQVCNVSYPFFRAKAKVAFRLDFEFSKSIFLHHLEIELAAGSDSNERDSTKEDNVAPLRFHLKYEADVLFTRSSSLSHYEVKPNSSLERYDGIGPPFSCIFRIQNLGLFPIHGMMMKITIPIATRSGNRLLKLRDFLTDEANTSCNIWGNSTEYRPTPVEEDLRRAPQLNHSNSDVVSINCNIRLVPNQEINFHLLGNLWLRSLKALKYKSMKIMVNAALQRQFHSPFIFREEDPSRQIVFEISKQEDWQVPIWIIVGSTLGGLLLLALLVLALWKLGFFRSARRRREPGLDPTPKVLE
T2 sequence (P05556 21-798, chain 2 of 2): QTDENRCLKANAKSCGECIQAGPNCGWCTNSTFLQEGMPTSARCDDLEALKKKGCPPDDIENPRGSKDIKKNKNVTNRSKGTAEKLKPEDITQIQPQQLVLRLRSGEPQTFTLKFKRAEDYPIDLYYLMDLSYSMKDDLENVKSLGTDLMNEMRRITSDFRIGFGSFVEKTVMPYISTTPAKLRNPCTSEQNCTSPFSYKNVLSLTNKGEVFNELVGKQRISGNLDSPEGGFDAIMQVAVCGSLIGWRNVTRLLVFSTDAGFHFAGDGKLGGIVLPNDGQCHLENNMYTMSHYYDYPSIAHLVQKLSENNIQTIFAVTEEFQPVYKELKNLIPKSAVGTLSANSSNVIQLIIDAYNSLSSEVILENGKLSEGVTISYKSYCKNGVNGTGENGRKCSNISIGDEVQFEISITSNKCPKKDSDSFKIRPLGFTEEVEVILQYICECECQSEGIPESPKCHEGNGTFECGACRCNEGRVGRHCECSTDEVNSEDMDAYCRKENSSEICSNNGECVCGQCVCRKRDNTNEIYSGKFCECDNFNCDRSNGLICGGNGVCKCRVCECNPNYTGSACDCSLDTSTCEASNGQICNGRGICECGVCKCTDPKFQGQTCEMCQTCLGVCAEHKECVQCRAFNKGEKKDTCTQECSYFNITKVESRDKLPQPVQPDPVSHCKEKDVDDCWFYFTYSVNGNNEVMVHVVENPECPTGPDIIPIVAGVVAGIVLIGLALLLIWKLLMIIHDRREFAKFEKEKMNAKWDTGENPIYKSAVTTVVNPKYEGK
T4 sequence (Q9UKX5 23-1188): as the sequence (Q9UKX5 23-1188, chain 1 of 2) above

EC50 [1]	Kd [2]	koff [3]	EC50 [4]	IC50, inhibition of adhesion of CHO-α11 cells to rat tail type I collagen [5]	binding result [6]	binding result [7]	kon [3]	IC50 of blocking cell adhesion to type I collagen [8]	EC50 [9]	Binder
0.051 µg/mL and 0.3 nM	0.048 nM	0.000234 s⁻¹	0.35 nM	0.39 nM	no binding (tested: 300 nM)	no binding				A11B1_16E10 (antibody, V domains shown, recombinant rabbit IgG, full chains) VH: QSLEESGGDLVKPGASLTLTCRVSGFSFSSSYYMCWVRQAPGKGLEWIACIGTTRGSTYYATWAKGRFTISKISSTTVTLQMTSLTDADTATYFCARDATGYRINTIGLYFNLWGPGTLVTVSS VL: AFELTQTPSSVEAAVGGTPTIKCQASQTIYSYLSWYQQKPGQPPKLLIYEASKLASGVPSRFSGSGSGTDYTLTISDLECADAATYYCQSYHGTASTEYNTFGGGTEVVVRG
0.5 µg/mL and 3.35 nM	0.01 nM	0.000108 s⁻¹	7.3 nM			binds	1.07e+07 M⁻¹ s⁻¹	9.4 nM	3.5 nM	79E3E3 (antibody, V domains shown, rat hybridoma mAb) VH: QIQLVQSGPEVKKPGESVKISCKASGYTFTDYAMNWVKQAPGNGLKWMGWINTQTGKPTYADDFKQRFVFSLETSARTTYLQINNLNIEDTATYFCTRLGTGNTKGFAYWGQGTLVTVSS VL: DILINQSPASLTVSAGERVTMSCKSSQSLLYSENNQDYLAWYQQKPGQFPKLLIYGASNRHTGVPDRFTGSGSGTDFTLTISSVQAEDLADYYCEQTYRYPFTFGSGTKLEIK
